Results on two molecules are retold here after patent CN111690066A (NANJING RONGJIEKANG BIOTECHNOLOGY CO LTD, dated 2020).

For assay [1], the target named is T1, 自产IL-4Rα重组蛋白 (in-house human recombinant IL-4Rα, residues 26-232 of NP_000409.1, expressed in 293F cells) (human, UniProt P24394 26-232).
T1 construct: range 26-232; Cloned into pcDNA3.4 and expressed in 293F cells; The construct itself is defined on NP_000409.1; also called RJK; 人源重组IL-4Rα蛋白
T1 sequence (looked up): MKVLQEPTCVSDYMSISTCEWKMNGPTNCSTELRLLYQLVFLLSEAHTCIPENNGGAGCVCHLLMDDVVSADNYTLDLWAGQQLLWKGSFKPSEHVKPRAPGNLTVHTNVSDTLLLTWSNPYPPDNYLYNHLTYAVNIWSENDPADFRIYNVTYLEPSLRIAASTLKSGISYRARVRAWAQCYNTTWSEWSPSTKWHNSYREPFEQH
In words: binding ELISA of purified VHH on IL-4Rα recombinant protein.

The target in assay [2] is T1, 自产IL-4Rα重组蛋白 (in-house human …). In words: BLI (Octet RED96), IL-4Rα loaded on the sensor, antibody in solution from 100 nM in 2-fold dilutions.

B1: 单域抗体 1A9 (VHH)
VHH 1: QVPLQQSGPELVKPGASVKISCKASGYAFSSSWMNWVKQRPGKGLEWIGRIYPGDGDTKYNGKFKGKATLTADKSSSTAYMQLSSLTSEDSAVYFCARDDYDEASWGQGTLVTVSA
VHH 2: DIVMTQSQKFMSTSVGDRVSITCKASQNVRSAVAWYQQKPGQSPKSLIYLASNRHTGVPDRFTGSGSGTDFTLTISNVQSEDLADYFCLQHWNYPFTFGSGTKLEIK
With B1, the EC50 (usually the concentration needed to bring the measured effect to its halfway point) in assay [1] is 2.72 nM.

B2: 单域抗体 4E9 (VHH)
VHH: QVQLVESGGGSVQAGGSLRLSCAASGDFYCMAWFRQAPGKEREGVATIRSGGRSTYYADSVKGRFTISKDNAKDTLYLQMNSLKPEDTAMYYCAVGVDGNCRNYWGQGTQVTVSS
In the case of B2, in assay [2], the Kd (usually a measure of binding affinity in units of concentration) came out at 0.239 nM; the koff (as a rule, a measure of how fast the partners let go of each other) turned out to be 0.000133 s⁻¹; the kon (as a rule, the second-order rate constant of association) was determined as 556000 M⁻¹ s⁻¹. Also, the EC50 in assay [1] came to 2.13 nM.
